Values quoted from earlier work as cited in US10663473B2, “Method of identifying a status of a mucosal intestinal epithelial barrier to improve treatment of inflammatory bowel disease” (Maximus Diagnostic Technologies LLC, priority 2016, dated 2020).

Test system: IBD patients
Details: all CD patients

B1: certolizumab pegol: anti-TNF agent, trade name Cimzia, sold by UCB S.A. (antibody, chains of the INN, looked up, V domains shown)
VH: EVQLVESGGGLVQPGGSLRLSCAASGYVFTDYGMNWVRQAPGKGLEWMGWINTYIGEPIYADSVKGRFTFSLDTSKSTAYLQMNSLRAEDTAVYYCARGYRSYAMDYWGQGTLVTVSS
VL: DIQMTQSPSSLSASVGDRVTITCKASQNVGTNVAWYQQKPGKAPKALIYSASFLYSGVPYRFSGSGSGTDFTLTISSLQPEDFATYYCQQYNIYPLTFGQGTKVEIK
modifications: Fab' PEG
  long-term clinical response rate: 50%
